“And” between values parts separate entries of the source, which are not always exact repeats. Equal values may be shown once.
T1: recombinant soluble human GPVI (GPVI-Fc) (human, UniProt Q9HCN6 21-267)
T1 construct: extracellular domain; also called soluble recombinant GPVI; purified GPVI; not shown: human Ig Fc domain
T1 sequence (looked up): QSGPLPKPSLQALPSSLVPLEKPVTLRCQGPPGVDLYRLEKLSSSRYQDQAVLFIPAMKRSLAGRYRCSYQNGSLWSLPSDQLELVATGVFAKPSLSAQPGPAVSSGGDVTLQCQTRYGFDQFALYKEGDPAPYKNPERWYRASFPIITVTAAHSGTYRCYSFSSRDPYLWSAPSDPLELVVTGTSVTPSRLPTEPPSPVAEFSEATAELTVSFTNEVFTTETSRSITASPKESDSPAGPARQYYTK


Legend:
[1] = target: human glycoprotein VI on human platelets (human) (UniProt Q9HCN6); test: flow cytometry, periplasmic extract on human platelets, FITC anti-c-myc
[2] = target: human glycoprotein VI on human platelets (human) (UniProt Q9HCN6); test: flow cytometry of washed human platelets with an irrelevant scFv, FITC-coupled anti-c-myc IgG [top panel]
[3] = target: human glycoprotein VI on human platelets (human) (UniProt Q9HCN6); test: flow cytometry of human platelets with bacterial periplasmic extract, FITC-coupled anti-c-myc antibody [upper panel]
[4] = target: T1, recombinant soluble human GPVI (GPVI-Fc); test: SPR (BIAcore 2000), GPVI-Fc immobilized on CM5, first series
Protocol: (§1) Binding of the anti-GPVI scFv to recombinant GPVI-Fc is analyzed with surface plasmon resonance using a BIAcore 2000 system (Uppsala, Sweden). Binding studies is performed with scFv 9O12, Proteolytic Fab and parental IgG.
(§2) Recombinant GPVI-Fc is immobilized (˜600 RU) onto a Carboxy-Methyl Dextran CM5 sensor chip using the amine coupling method (Wizard procedure). Antibody is then passed over the immobilized recombinant GPVI-Fc in HBS-EP buffer (0.01 M HEPES pH 7.4, 0.15 M NaCl, 0.005% polysorbate 20 (v/v)) at a flow rate of 20 μl/min at 25° C. Kinetic constants (kₐ, kd) and affinity are determined using BIAevaluation version 3.1 software, by fitting data to binding model. HBS-EP is the running buffer. 10 mM glycine-HCl pH 2.5 injected for 30 s at 20 μl/min is the regeneration buffer. All reagents and buffers used are from Biacore.

[5] = target: T1, recombinant soluble human GPVI (GPVI-Fc); test: inhibition of GPVI-Fc binding to immobilized collagen, ELISA
Protocol: (§3) FIG. 9. Inhibition of GPVI binding to immobilized collagen. GPVI-Fc was incubated on immobilized collagen in the presence of increasing amounts of antibodies: scFv 9O12.2 (triangle), or pFab (square) (A): 2 μg of GP VI-Fc; (B): 4 μg of GPVI-Fc Bound GPVI-Fc was detected using an HRP coupled anti-Fc IgG.

[6] = target: T1, recombinant soluble human GPVI (GPVI-Fc); test: SPR (BIAcore 2000), GPVI-Fc immobilized on CM5, second series
Protocol: as §1, §2

[7] = target: T1, recombinant soluble human GPVI (GPVI-Fc); test: blocking ELISA: 4 µg GPVI-Fc on immobilized collagen with increasing antibody fragment; blocked ligand: fibrillar type I collagen; bound GPVI-Fc detected with HRP-coupled anti-Fc
Protocol: as §3

[8] = target: T1, recombinant soluble human GPVI (GPVI-Fc); test: competition ELISA on GPVI-Fc coated plates; competitor: scFv 9O12.2 at a fixed concentration (60 µg/mL in the legend, 100 µg/ml in the methods), bound scFv detected with HRP-coupled anti-c-myc
[9] = target: T1, recombinant soluble human GPVI (GPVI-Fc); test: SPR against immobilized GPVI (procedure as in Example 1)

| Kd [4] [nM] | IC50 [5] | Kd [6] [nM] | IC50 (read off the curve) [7] [µg/mL] | Molecule | further results |
| --- | --- | --- | --- | --- | --- |
| – | – | – | – | irrelevant scFv (c-myc tagged negative control) | % positive platelets [1]: 0.17%; % positive platelets (FITC count) [2]: 0.17%; % positive platelets (FITC count) [3]: 0.03% |
| 4.5 | 2.1 µg/mL and 15 nM | 2.3 | ~7 | 9O12.2 Fab fragment prepared by papain digestion of the parental IgG (Fab, V domains shown, Papain Fab of the murine IgG1 kappa antibody; also called Fab 9O12.2; Fab 9O12) VH: QVQLQESGAELVKPGASVKMSCKASGYTFTSYNMHWVKQTPGQGLEWIGGIYPGNGDTSFNQKFKGKATLTADKSSRTAYMQLSSLTSEDSAVYYCARGTVVGDWYFDVWGAGTTLTVSS VL: DVLMTQTPLSLPVSLGDQASISCRSSQSLENSNGNTYLNWYLQKPGQSPQLLIYRVSNRFSGVLDRFSGSGSGTDFTLKISRVEAEDLGVYFCLQLTHVPWTFGGGTKLEIK | – |
| 6.5 | – | 4 | – | 9O12.2 monoclonal anti-human GPVI antibody (murine IgG1, kappa) (antibody, V domains shown, The VL is therefore written as 136-247; also called 9O12.2 IgG; IgG 9O12.2) VH: QVQLQESGAELVKPGASVKMSCKASGYTFTSYNMHWVKQTPGQGLEWIGGIYPGNGDTSFNQKFKGKATLTADKSSRTAYMQLSSLTSEDSAVYYCARGTVVGDWYFDVWGAGTTLTVSS VL: DVLMTQTPLSLPVSLGDQASISCRSSQSLENSNGNTYLNWYLQKPGQSPQLLIYRVSNRFSGVLDRFSGSGSGTDFTLKISRVEAEDLGVYFCLQLTHVPWTFGGGTKLEIK | IC50 (read off the curve) [8]: ~20 µg/mL |
| – | – | – | – | second optimized humanized scFv 9O12.2 fragment, hscFv 9O12.2(2) (scFv, Murine VL FR1 and FR2 are kept; Detected through its c-myc flag) scFv: QVQLQESGAEVKKPGASVKVSCKASGYSFTSYNMHWVRQAPGQRLEWMGGIYPGNGDTSFNQKFKGKATLTADKSSRTAYMGLSSLRPEDTAVYYCARGTVVGDWYFDVWGQGTLVTVSSGGGGSGGGGSGGGGSDVLMTQTPLSLPVSLGDQASISCRSSQSLENSNGNTYLNWYLQKPGQSPQLLIYRVSNRFSGVLDRFSGSGSGTDFTLTISSLQPEDFAIYYCLQLTHVPWTFGGGTKVEIKRSRVTVSSDQKLISEEDLN | Kd [9]: 3.2 nM; koff [9]: 0.000186 s⁻¹; kon [9]: 58000 M⁻¹ s⁻¹ |
| 2.5 | ~1.17 µg/mL and ~42 µM | 2.6 | ~4 | murine single chain variable fragment scFv 9O12.2 (VH-(Gly4Ser)3-VL, spacer, c-myc flag) (scFv, Made in the E. coli periplasm through a pelB leader; Tested as periplasmic extract or after purification on GPVI-sepharose; The monomer was isolated by size exclusion for the aggregation assay; also called mscFv 9O12.2; mscFv 9O12) scFv: QVQLQESGAELVKPGASVKMSCKASGYTFTSYNMHWVKQTPGQGLEWIGGIYPGNGDTSFNQKFKGKATLTADKSSRTAYMQLSSLTSEDSAVYYCARGTVVGDWYFDVWGAGTTLTVSSGGGGSGGGGSGGGGSDVLMTQTPLSLPVSLGDQASISCRSSQSLENSNGNTYLNWYLQKPGQSPQLLIYRVSNRFSGVLDRFSGSGSGTDFTLKISRVEAEDLGVYFCLQLTHVPWTFGGGTKLEIKRSRVTVSSEQKLISEEDLN | koff [6]: 0.00017 s⁻¹; kon [6]: 65000 M⁻¹ s⁻¹ |

Reference: patent publication US20130189259A1 (INSERM INSTITUT NATIONAL DE LA SANTE ET DE LA RECHERCHE …, published 2013)
